The target of this assay is Plutella xylostella tachykinin receptor (PxTKR) (Plutella xylostella).

Ends that are not written are not given here.

In turn, “Plutella xylostella tachykinin peptide 3 (PxTK3)” showed an EC50 of the cAMP response (cAMP-Glo assay) of HEK293 cells stably expressing PxTKR, peptide from 10 pM to 100 μM of 87.7 nM. In the case of APSGFLGMR (ends and bridges not checked) [Plutella xylostella tachykinin peptide 1 (PxTK1)], the EC50 of the cAMP response (cAMP-Glo assay) of HEK293 cells stably expressing PxTKR, peptide from 10 pM to 100 μM stood at 32 nM.

(Values after publication PMC7951984.)
